Numbering of substitutions follows the chain as printed. Numbers in names are those of the source. Entries after “also recorded” stand apart in the source; their conditions may differ.

B1: heat inactivated heparinase III: heat inactivated heparinase III used as control (protein, UniProt Q59289 25-659, looked up)
Heparin-sulfate lyase: QSSSITRKDFDHINLEYSGLEKVNKAVAAGNYDDAAKALLAYYREKSKAREPDFSNAEKPADIRQPIDKVTREMADKALVHQFQPHKGYGYFDYGKDINWQMWPVKDNEVRWQLHRVKWWQAMALVYHATGDEKYAREWVYQYSDWARKNPLGLSQDNDKFVWRPLEVSDRVQSLPPTFSLFVNSPAFTPAFLMEFLNSYHQQADYLSTHYAEQGNHRLFEAQRNLFAGVSFPEFKDSPRWRQTGISVLNTEIKKQVYADGMQFELSPIYHVAAIDIFLKAYGSAKRVNLEKEFPQSYVQTVENMIMALISISLPDYNTPMFGDSWITDKNFRMAQFASWARVFPANQAIKYFATDGKQGKAPNFLSKALSNAGFYTFRSGWDKNATVMVLKASPPGEFHAQPDNGTFELFIKGRNFTPDAGVFVYSGDEAIMKLRNWYRQTRIHSTLTLDNQNMVITKARQNKWETGNNLDVLTYTNPSYPNLDHQRSVLFINKKYFLVIDRAIGEATGNLGVHWQLKEDSNPVFDKTKNRVYTTYRDGNNLMIQSLNADRTSLNEEEGKVSYVYNKELKRPAFVFEKPKKNAGTQNFVSIVYPYDGQKAPEISIRENKGNDFEKGKLNLTLTINGKQQLVLVP
modifications: heat inactivated
B2: H539A: recombinant heparinase III with histidine 539 mutated to alanine (protein)
chain: MTTKIFKRIIVFAVIALSSGNILAQSSSITRKDFDHINLEYSGLEKVNKAVAAGNYDDAAKALLAYYREKSKAREPDFSNAEKPADIRQPIDKVTREMADKALVHQFQPHKGYGYFDYGKDINWQMWPVKDNEVRWQLHRVKWWQAMALVYHATGDEKYAREWVYQYSDWARKNPLGLSQDNDKFVWRPLEVSDRVQSLPPTFSLFVNSPAFTPAFLMEFLNSYHQQADYLSTHYAEQGNHRLFEAQRNLFAGVSFPEFKDSPRWRQTGISVLNTEIKKQVYADGMQFELSPIYHVAAIDIFLKAYGSAKRVNLEKEFPQSYVQTVENMIMALISISLPDYNTPMFGDSWITDKNFRMAQFASWARVFPANQAIKYFATDGKQGKAPNFLSKALSNAGFYTFRSGWDKNATVMVLKASPPGEFHAQPDNGTFELFIKGRNFTPDAGVFVYSGDEAIMKLRNWYRQTRIHSTLTLDNQNMVITKARQNKWETGNNLDVLTYTNPSYPNLDHQRSVLFINKKYFLVIDRAIGEATGNLGVAWQLKEDSNPVFDKTKNRVYTTYRDGNNLMIQSLNADRTSLNEEEGKVSYVYNKELKRPAFVFEKPKKNAGTQNFVSIVYPYDGQKAPEISIRENKGNDFEKGKLNLTLTINGKQQLVLVP
B3: H241A: recombinant heparinase III with histidine 241 mutated to alanine (protein)
chain: B2 chain with H241A, A539H
B4: H152A: recombinant heparinase III with histidine 152 mutated to alanine (protein)
chain: B2 chain with H152A, A539H
B5: H225A: recombinant heparinase III with histidine 225 mutated to alanine (protein)
chain: B2 chain with H225A, A539H
B6: H36A: recombinant heparinase III with histidine 36 mutated to alanine (protein)
chain: B2 chain with H36A, A539H
B7: H469A: recombinant heparinase III with histidine 469 mutated to alanine (protein)
chain: B2 chain with H469A, A539H
B8: H424A: recombinant heparinase III with histidine 424 mutated to alanine (protein)
chain: B2 chain with H424A, A539H
B9: H234A: recombinant heparinase III with histidine 234 mutated to alanine (protein)
chain: B2 chain with H234A, A539H
B10: H510A: recombinant heparinase III with histidine 510 mutated to alanine (protein)
chain: B2 chain with H510A, A539H
B11: H295A: recombinant heparinase III with histidine 295 mutated to alanine (protein)
chain: B2 chain with H295A, A539H

One data set has as its system B16BL6 melanoma. The data set is described as follows: Primary tumor growth of B16BL6 melanoma in mice treated with heparinases. The class given is in vivo. As to conditions: day 15. From the text: Heparinases I and III, which have very distinct substrate specificities for cleaving HLGAGs, were employed as tools to investigate the role of HLGAGs in tumor growth and metastasis. While heparinase I cleaves at the highly sulfated regions of HLGAGs, heparinase III only cleaves at the under-sulfated regions of the polysaccharide chain, thereby rendering these enzymes powerful tools to investigate in vivo and in vitro roles of HLGAGs, in development, morphogenesis, angiogenesis etc. To examine the roles of HLGAGs in tumor growth and metastasis, we used B16BL6 melanoma as a model system and treated tumor-bearing mice with either heparinases I or III to investigate both primary tumor growth as well as tumor metastasis. Consistent with the current paradigm, heparinase I accelerated tumor growth (FIG. 8). At a dosage of 0.5 mg/kg/day of heparinase I, tumor growth was increased by about 39%. […] Inhibition of primary tumor growth by heparinase III was first observed at 2 mg/kg per day. Tumor growth was inhibited by 73% at 12 mg/kg per day, the maximum dosage tested in the study (FIG. 8).
Mice, 15 days after tumor implantation with B16BL6 melanoma, were examined. 4×10^5 log growth phase B16BL6 melanoma cells in 0.1 ml PBS were injected to the flank of C57BL/6 mice on day 1. Daily injection of 0.1 ml of PBS, heat inactivated hep III or active heparinase III (2 mg/ml, recombinantly expressed, purified, buffer exchanged with PBS, and concentrated) started at the day 4 and continued throughout the experiment. At day 7, osmotic pumps (100 μl capacity delivering at 0.5 μl per hour) containing PBS or 3 mg/ml hep III were implanted subcutaneously at a place remote from the tumor site. Mice were sacrificed at day 15.
FIG. 8 depicts the tumor volume of the tumors isolated from the mice described above. Tumor volume was measured daily after day 7 with a caliper and calculated with the formula [volume=0.52×(width)^2×(length)].
As to B1, the “tumor mass upon visual inspection compared with active Hep III” value is “significantly larger tumor masses”.

Still in this data set, the particulars now being: mouse, in vivo.
On to B1, for which the “tumor growth curves compared with PBS treated mice” value is listed as “comparable growth curves”.

Tested on in a further data set: not listed separately
As to the kind of experiment: Heparinase III kinetic assay of r-heparinase III and histidine mutants. The class given is biochemical.
Settings: not given
The method, then:
The activity of heparinase III was measured using a UV 232 nm assay similar to those reported for heparinase I and heparinase II (Godavarti, R., Cooney, C. L., Langer, R., and Sasisekharan, R. (1996) Biochemistry 35, 6846-52; Shriver, Z., Hu, Y., and Sasisekharan, R. (1998) J. Biol. Chem. 273, 10160-67; and Lohse, D. and Linhardt, R. J. (1992) J. Biol. Chem. 267, 781-87). Briefly, the increase in absorbance at 232 nm as a function of time was monitored under saturating substrate conditions. All assays were performed with heparan sulfate at a concentration of 2 mg/ml in 50 mM sodium phosphate, pH 7.6. The temperature for enzymatic activity measurements was kept constant at 35° C.
In parallel to the mapping studies and to confirm the results of the chemical modification experiments, each of the thirteen histidine residues present in heparinase III was mutated to alanine. The recombinant heparinase III mutant proteins were expressed, purified, and assessed for enzymatic activity towards heparan sulfate (Table 2).
As to B2, the “changes in recombinant protein yield, enzyme activity, or kinetic parameters compared with r-heparinase III” value was “no significant changes”.
As to B3, the “changes in recombinant protein yield, enzyme activity, or kinetic parameters compared with r-heparinase III” value is listed as “no significant changes”.
Still for that read-out and setting: the same measure for B4: “no significant changes”; for B5: “no significant changes”; for B6: “no significant changes”.
The same measure, in the same setting: the same measure for B7: “no significant changes”.
Same read-out and setting: the same measure for B8: “no significant changes”; for B9: “no significant changes”; for B10: “no significant changes”.

The same data set, now with this note: heparan sulfate.
The term kcat denotes the maximal rate divided by the concentration of active sites. Consider B2, for which the kcat was found to be 132 s⁻¹.
The same measure, in the same setting: the value for B3 was 5 s⁻¹.
Consider B4, for which the kcat was 83 s⁻¹.
Regarding B5, the catalytic constant (kcat) was found to be 22 s⁻¹.
On the same count and under the same terms, the value for B6 was 86 s⁻¹; that for B7 was 100 s⁻¹; that for B8 was 24 s⁻¹.
Same read-out and setting: the value for B9 was 23 s⁻¹.

The data set is the same for the next values; noted with them: heparan sulfate; calculated assuming a molecular weight of 15 kDa.
As usually defined, the Km is the substrate concentration at which the rate is half of its maximum. In the case of B2, the Km was 92 µM.
On the same count and under the same terms, the value for B3 was 16 µM.
On the same count and under the same terms, the value for B4 was 58 µM; that for B5 was 80 µM.
Same read-out and setting: the value for B6 was 98 µM; that for B7 was 71 µM; that for B8 was 59 µM.
As to B9, the Km was 75 µM.

Still in this data set, the particulars now being: kinetic data and exhaustive digest profile.
As for B11, the “enzymatic activity towards heparan sulfate” value was “completely inactive; also recorded: no enzymatic activity”.
On the same count and under the same terms, the same measure for B10: “completely inactive; also recorded: no enzymatic activity”.

The values are drawn from patent US7939292B2, “Modified heparinase III and methods of sequencing therewith” (Massachusetts Institute of Technology, priority 2000, dated 2011).
